As a reminder, the IC50 is the concentration that gives 50% inhibition.

Like-named read-outs stand apart in the source and are kept apart here.

This note sets out measurements from US7122636.

Experiment [1] addresses T1, PF4 (UniProt P02776 32-101).
T1 construct: also called platelet factor 4
T1 sequence (looked up): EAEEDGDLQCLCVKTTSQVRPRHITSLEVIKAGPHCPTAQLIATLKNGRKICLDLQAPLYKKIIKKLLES
Kind of experiment: cross reactivity test.

Experiment [2] concerns the target T2, β-TG (UniProt P02775 48-128).
T2 construct: also called b-TG
T2 sequence (looked up): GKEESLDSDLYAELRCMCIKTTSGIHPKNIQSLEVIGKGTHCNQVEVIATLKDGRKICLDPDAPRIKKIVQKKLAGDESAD
Kind of experiment: cross reactivity test.

For experiment [3], the target named is T3, recombinant human IL-8, (ser-IL-8)72 (human, UniProt P10145 28-99).
T3 sequence (looked up): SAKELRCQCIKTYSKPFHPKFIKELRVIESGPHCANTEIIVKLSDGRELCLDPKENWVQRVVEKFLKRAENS
As to the kind of experiment: cell-based or functional assay.

For experiment [4], the target named is T3, recombinant human IL-8, (ser-IL-8)72. As to the kind of experiment: 125I-IL-8 binding to human neutrophils, competition.
Experiment [5] has the same target. Kind of experiment: 125I-IL-8 binding to human neutrophils, competition; against the chimeric F(ab).
Experiment [6] shares this target. As to the kind of experiment: 125I-IL-8 binding to human neutrophils, competition. This is another data set of the same source.
For experiment [7] the target is unchanged. As to the kind of experiment: 125I-IL-8 binding to human neutrophils, competition; against F(ab)-1.

B1: anti-IL-8 monoclonal antibody 5.12.14 (antibody, mouse IgG2a, V domains shown)
VH: EVQLVESGGGLVPPGGSLKLSCAASGFIFSSYGMSWVRQTPGKSLELVATINNNGDSTYYPDSVKGRFTISRDNAKNTLYLQMSSLKSEDTAMFYCARALISSATWFGYWGQGTLVTVSA
VL: DIVMTQSQKFMSTSVGDRVSVTCKASQNVGTNVAWYQQKPGQSPKALIYSSSYRYSGVPDRFTGSGSGTDFTLTISHVQSEDLADYFCQQYNIYPLTFGPGTKLELKR
notes: mouse IgG2a from hybridoma ATCC HB 11553
Take B1: the binding result in experiment [1] and in experiment [2] was “no binding” in each case.

B2: 6G4V11N35A Fab (Fab, V domains shown)
VH: EVQLVQSGGGLVQPGGSLRLSCAASGYSFSSHYMHWVRQAPGKGLEWVGYIDPSNGETTYNQKFKGRFTLSRDNSKNTAYLQMNSLRAEDTAVYYCARGDYRYNGDWFFDVWGQGTLVTVSS
VL: DIQMTQSPSSLSASVGDRVTITCRSSQSLVHGIGATYLHWYQQKPGKAPKLLIYKVSNRFSGVPSRFSGSGSGTDFTLTISSLQPEDFATYYCSQSTHVPLTFGQGTKVEIKR
As for B2, the “IC50, neutrophil chemotaxis” value in experiment [3] was 2.7 nM.

B3: humanized 6G425 F(ab)-1 (Fab, V domains shown)
VH: EVQLVESGGGLVQPGGSLRLSCAASGYSFSSHYMHWVRQAPGKGLEWVGYIDPSNGETTYNQKFKGRFTISRDNSKNTLYLQMNSLRAEDTAVYYCAARGDYRYNGDWFFDVWGQGT
VL: DIQMTQSPSSLSASVGDRVTITCRSSQSLVHGIGNTYLHWYQQKPGKAPKLLIYYKVSNRFSGVPSRFSGSGSGTDFTLTISSLQPEDFATYYCSQSTHVPLTFGQGTKVEIKR
notes: Fab with human kappa I and human IgG1 CH1 constant domains; also called version 1; V1
Turning to B3, the IC50 in experiment [4] came out at 63 nM; in experiment [6] it was 40 nM. For the same molecule, the “fold reduction in binding affinity” value in experiment [5] is 5.5 fold.

B4: humanized 6G425 F(ab)-3 (Fab, V domains shown)
VH: EVQLVESGGGLVQPGGSLRLSCAASGYSFSSHYMHWVRQAPGKGLEWVGYIDPSNGETTYNQKFKGRFTISVDNSKNTLYLQMNSLRAEDTAVYYCAARGDYRYNGDWFFDVWGQGT
VL: DIQMTQSPSSLSASVGDRVTITCRSSQSLVHGIGNTYLHWYQQKPGKAPKLLIYYKVSNRFSGVPSRFSGSGSGTDFTLTISSLQPEDFATYYCSQSTHVPLTFGQGTKVEIKR
notes: template F(ab)-1; also called version 3
As for B4, in experiment [7], the “fold decrease in IL-8 binding” value is below 2 fold. Further, in experiment [4], the half-inhibitory concentration (IC50) came to 79.8 nM.

B5: humanized 6G425 F(ab)-2 (Fab, V domains shown)
VH: EVQLVESGGGLVQPGGSLRLSCAASGYSFSSHYMHWVRQAPGKGLEWVGYIDPSNGETTYNQKFKGRATISRDNSKNTLYLQMNSLRAEDTAVYYCAARGDYRYNGDWFFDVWGQGT
VL: DIQMTQSPSSLSASVGDRVTITCRSSQSLVHGIGNTYLHWYQQKPGKAPKLLIYYKVSNRFSGVPSRFSGSGSGTDFTLTISSLQPEDFATYYCSQSTHVPLTFGQGTKVEIKR
notes: template F(ab)-1; also called version 2
B5: in experiment [7], the “fold decrease in IL-8 binding” value was below 2 fold. Moreover, the IC50 in experiment [4] came out at 106 nM.
